# According to the nanobody polyreactivity screen of Harvey et al. (2022):
# Assay: yeast display, Sf9 membrane polyspecificity reagent, FACS + sequencing; frameworks hold sequencing errors
# Outline: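 Using colony PCR, genes from sorted yeast display clones were amplified, then sequenced on MiSeq at 2 × 250 and filtered by CDR length. The clones had been stained with 10% biotinylated, detergent-solubilized Sf9 membrane reagent for 1 hour at 4 °C and sorted by FACS into low and high (top ~1%) gates on anti-HA and streptavidin fluorescence. Polyreactivity labels come from the gate of origin.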
row,Sequence,polyreactivity (PSR sort gate)
1,QVQLVESGGCLVQAGGSIRLSCAASGSTFDINAMGWYRQAPGKERELVASITFSGGSTYYADSVKGRFTISRDNAKNTGYLQMNSLKPEDTAVYYCAADSSGEYPGGYWGQGTQVTVSS,low polyreactivity
2,QVQLVESGGCLVQAGGSLRFSCAASGIIFYGYAMGWYRQAPGKERELVAAISERGGSTYYADSVKGRFTISRDNAKNTVYLQMNSLKPEDTAVYYCAVDYYYLMYWGQGTQVTVSS,low polyreactivity
3,QVQLVESGGCLVQAGGSLRFSCAASGSTFHRYVMGWYRQAPGKERELVAVINSTGGSTYYADSVKGRYTISRDNAKNTVYLQMNSLKPEDTAVYYCARVTRRGPGYTTLYSRYDYWGQGTQVNVSS,low polyreactivity
4,QVQLVESGGCLVQAGGSLRLICAASGSTFLLNAMGWYRQAPGKVRELVAAITSSGRTNYADSVKGRFTISRDNAKNTVYLQMNSLKPEDTAVYYCNTRYSPGYQGTDVDYWRQGTQVTVSS,low polyreactivity
5,QVQLVESGGCLVQAGGSLRLICAASGSTFRRYAMGWYRQAPGKERELVATISKSGGSTYYADSVKGRFTISRDNAKNTVYLQMNSLKPEDTAVYYCAARSFFYRVSDRRAYIDTNGYWGQGTQVTVSS,high polyreactivity
6,QVQLVESGGCLVQAGGSLRLRCAASGRIFLRYDMGWYRQAPGKERELVAAISSGASTYYADSVKGRFTISRDNAKNTVYLQMNSLKPEDTAVFYCAVDRPYYYGYRMDYWGQGSQVTVSS,low polyreactivity
7,QVQLVESGGCLVQAGGSLRLRCAASGRTLRCYAMGWYRQAPGKEREFVAAISRGTVGTYYADSVKGRFTISRDNAKNTVYLQMNSLKPEDTAVYYCAADRFAYFTNLRLGYYSWGQGTQVTVSS,low polyreactivity
8,QVQLVESGGCLVQAGGSLRLRCAASGSTFDDNVKGWYRPAPRKDRELVAAISSSGGSTYYADSVKGRFTISRDNAKNTVYLQMNSLKPEDTAVYYCNAVYFGLWGYYSRRSYNYWGQGTQVNVSS,low polyreactivity
9,QVQLVESGGCLVQAGGSLRLSCAASGFIFRRYALGWNRQAPGKERELVAAISSSGGRTTYADSVKGRFTISRDNAKNTVYLQMNSLKPEDTAVYYCNADLCPGNHDGYWGQGTQVTVSS,low polyreactivity
10,QVQLVESGGCLVQAGGSLRLSCAASGFIFSRNAIGWYRQAHGKERELVAAISLRGGSTYYADSVKGRFTISRDYAKNTVYLQMNSLKPEDTAVYYCAAPLFSGYDYWVQGTQVTVSS,low polyreactivity
11,QVQLVESGGCLVQAGGSLRLSCAASGFIFSYYALGWYRQAPGKERELVAAITWDGGSTYYADSVKGRFTISRDNAKNSVYLQMNSLKPEDTAVYYCNAYYYYRRPLEGGYWGQGTQVTVSS,low polyreactivity
12,QVQLVESGGCLVQAGGSLRLSCAASGFTFGPYDMGWYRQAPGKERELVAVIIGGDSTNYADSVKGRFTISRDNAKNTVYLQLNSLKPEVTAVYYCAADYIDRVGWMDYWGQGTQVTVSS,low polyreactivity
13,QVQLVESGGCLVQAGGSLRLSCAASGFTFSYYAMGWYRQAPGKERELVAAISSSSGTTYYADSVKRRFTISRDNANNTVYLQMNSLKPEDTAVYYCVVIARDGYDYWGQGTQVTVSS,high polyreactivity
14,QVQLVESGGCLVQAGGSLRLSCAASGFTLTAYAMGWYRQAPGKEREFVAAISTSGTRTYYADSVKGRFTISRDNAKITVYLQMYSLKPDDTAVYYCAARYSGYQYWKFNYWGQGTQVTVSS,high polyreactivity
15,QVQLVESGGCLVQAGGSLRLSCAASGGTFVTYAMGWYRQAPGKERELVAAITTGGSTYYADSVKGRFTISRDNAKNTVYLQMNSLKPEDSAVYYCAAVYTGSGKRYYKGYYWGQGTQVTVSS,low polyreactivity
16,QVQLVESGGCLVQAGGSLRLSCAASGIIFYQNSMGWYRQAPGKERELVAAISRSGGTTYYADSVKGRFTISRDNAKNTVYLLMNSVNPEVTAVYYCAAVGTGSGYYYWGQGTQVTVSS,high polyreactivity
17,QVQLVESGGCLVQAGGSLRLSCAASGITLRYYAMGWYRQAPGKERELDAAISSGGRTYYADSVKGRFTISRDNATKTVYLPLNSLKPEETAVYYCNVVWSVTYDYWGHGTQVTVSS,high polyreactivity
18,QVQLVESGGCLVQAGGSLRLSCAASGLTFKWNTMGWYRQAPGKESELVAAISWRVVSTYYADSVKGRFTISRDNAKNTVYLQMNSLKPEDTAVYYDYWGQGTQVTVSS,low polyreactivity
19,QVQLVESGGCLVQAGGSLRLSCAASGLTFSWYAMGWYRQAPGKERELVAAISTRGGRTYYADSVKGRFTISRDNAKNTVYLQMNSLKPEDTAVYYCAAGVSYRYLWLVDYWGQGTQVTVSS,high polyreactivity
20,QVQLVESGGCLVQAGGSLRLSCAASGNTFSTYTMGWYRQAPGKERELVAALTRSRGRTYYADSVKGRFTISRDTAKNTVYLQMNSLKPEDTAVYYCNAYTADLDDYWGQGNQVTVSS,high polyreactivity
21,QVQLVESGGCLVQAGGSLRLSCAASGRIFDHYAMGWYRQAPGKERELVAAITRSGGITYYADSVKGRFTISRDNAKNTVYLQMNSLKPDDTAVFYCAAYLKGNYYLGIARYVLYYWGQGTQVTVSS,low polyreactivity
22,QVQLVESGGCLVQAGGSLRLSCAASGRIFFYYTLGWYRQAPGKERELVAAINSTGSTNYADSVKGRFTISRDNAKNTVYLQMKSLKPEDTAVYYCNAGTRYIFLYPPFLGAAFDYWGQGTQVTVSS,low polyreactivity

row,Sequence,polyreactivity (PSR sort gate)
1,QVQLVESGGCLVQAGGSLRLSCAASGRIFQGYAMAWYRQAPGKEREFVAAITLSGGSTYYADSVKGRFTISRDNAKNTVYLQMNSLKPEDTAVYYCNAYYPDEPSLDDYWGQGTQVTVSS,low polyreactivity
2,QVQLVESGGCLVQAGGSLRLSCAASGRIFVPNAMGWYRQAPGKERELVAAINWGGGSTYYADSVKGRFTISRDNAKNTVYLQMNSLKPEDTAVYYCAADHPYTMGVLPNQQFDYWGQGTQVTVSS,low polyreactivity
3,QVQLVESGGCLVQAGGSLRLSCAASGRSFDKYTMGWYRQAPGKERELVAAISTRGGSTYYADSVKGRFTISRDNAKNTVYLQMNSLKPEDTAVYYCATVPRPKAYDYWGQGTQVTVSS,high polyreactivity
4,QVQLVESGGCLVQAGGSLRLSCAASGRTFRSNAMGWYRQAPGKERELVAAITIGGSTTYADSVKGRFTISRDNAKNTVYLQMISLKREDSAVYYCKARDYYPYDYWGKGTQVTVSS,high polyreactivity
5,QVQLVESGGCLVQAGGSLRLSCAASGRTFRYYAMGWYRQAPGRERELVAAIRRAGSTTYADSVKGRFTISRDNAKNTVYLQMNSLKPEDTAVYYCIARRYGYGYALDYWGQGTQVTVSS,high polyreactivity
6,QVQLVESGGCLVQAGGSLRLSCAASGRTFRYYAMGWYRQAPGTERELVATITGSGGSTYYADSVKGRFTISRDNAKNTVYLQMTSLKPEDTAVYYCNARKVRYPYRWYDYWGQGTQVTVSS,high polyreactivity
7,QVQLVESGGCLVQAGGSLRLSCAASGSIFAAYTMGWYRQAPGKERELVAAISVSTVSTYYADSVKGRFTISRDNAKNTVYLQMNSLKPEDTAVYYCNADATDSYPEKDEHDSWGQGTQVTVSS,low polyreactivity
8,QVQLVESGGCLVQAGGSLRLSCAASGSIFGYYAMGWYRQAPGKERELVAAISYSGGSTYYADSVKGRFTISRDTAKNTVYLQMNSLKPEDTAVYYCNAVTSWAYWRGPRYDYWGQGTQVTVSS,high polyreactivity
9,QVQLVESGGCLVQAGGSLRLSCAASGSIFHPYGMGWYRQAPGKERELVAAITSSGGDTYYADSVKGRFTISRDNAKNTVYLQMNSLKPEDTAVYYCAATGLPGYYAYDYWGQGTQVTVSS,low polyreactivity
10,QVQLVESGGCLVQAGGSLRLSCAASGSIFIWYAMGWYRQAPGKERELVASITYSAGRTYYADSVKGRFTISRDNAKNTVYLQMNSLKPEDTAVYYCAADSPYVYTLDSYGEGDYWGQGTQVTVSS,low polyreactivity
11,QVQLVESGGCLVQAGGSLRLSCAASGSIFKGYAMGWSRQAPGKERELVAAITIDGSTYYADSVKGRFTISRDNAKNTVYLQMNSLKPEDTAVYYCAAVYLWYGSWPLHFAAYDYWGQGTQVTVSS,low polyreactivity
12,QVQLVESGGCLVQAGGSLRLSCAASGSIFLFNAMGWYRQAPGKDRELVATISWSGVVLRTYADSVKGRFTISRDNAKNTVYLQMNSLKPEDTAVYNCAARDLAFFTEYGYWGQGTQVSVSS,high polyreactivity
13,QVQLVESGGCLVQAGGSLRLSCAASGSIFSKNTMGWSRQAPGKDRELVATISIGGGSTYYADSVKGRFTISRDNAKNTVYLQMNSLKPADSAVYYCNASLRRPFSLYYYWGQGTQVTVSS,high polyreactivity
14,QVQLVESGGCLVQAGGSLRLSCAASGSIFTTYAMGWYRQAPGKERELVAAISVSGSSTYYADSVKGRFTISRDNAKNTVYLQMNSLKPEDTAVYYCNKAFRSVRPRRRYDYWGQGTQVTVSS,low polyreactivity
15,QVQLVESGGCLVQAGGSLRLSCAASGSILRYYAMGWYRQAPGKERELVAAISRGGSTYYADSVKGRFTISRDNAKNTVYLQMNSLKPEDTAVYYCARLPLRYYFGYDYWGQGTQVTVSS,high polyreactivity
16,QVQLVESGGCLVQAGGSLRLSCAASGSTFPIYAMGWYRQAPGKERELVARITWNGGRTYYADSVKGRFTISRDNAKNTVYLQMNSLKPEDTAVYYCAAGKIGSYHYDYWGQGTQVTVSS,high polyreactivity
17,QVQLVESGGCLVQAGGSLRLSCAASGSTFTGYAMGWYRQAPGKEREFVATITKRGGRTYYADSVKGRFTISRDHAKNTVYLQMNSLKPEDTAVYYCARDQGKLVVPYDYWGQGTQVTVSS,high polyreactivity
18,QVQLVESGGCLVQAGGSLRLSCAASGSTFTLYAMGWYRPAPGKERELVAAIRRGGSTNYADSVKGRFTISRDNAKNTDYLQMNSLKPEDTAVYYCAADSYTSRSRYSGSGGYDYGGQGTQVTVSS,low polyreactivity
19,QVQLVESGGCLVQAGGSLRLSCAASGSTFVYYAMGWYRQAPGKESELVAAITSGGSTYYADSVKGRFTISRDNAKNTVYLQMNSLKPEDTAVYYCATDYTWFGYRYDYWGQGTQVTVSS,low polyreactivity
20,QVQLVESGGCLVQAGGSLRLSCAASGSTLYRYVMGWYRPAPGKESELVAAISWSGTNTYADSVKGRFTISRDNAKNTVYLQMNSLKPEDTAVYYSAAAGPGYNWGYRVYAIYDYWGQGSQVTVSS,high polyreactivity
21,QVQLVESGGCLVQAGGSLRLSCAASGSTSDIYARGWYSPAPGKEREFVAARSLTGGTTYYAASVKGRFTISCDNAKNTVYLQMNSLKPEDTAVYYCNADVGWWGYDDDYWGQGTQVTVSS,high polyreactivity
